The labels stand for the following.
B1: Anti-factor Bb mouse monoclonal antibody (antibody, V domains shown)
VH: EVQLVESGGALVKPGGSLKLSCAASGFTFSNYAMSWVRQTPEKRLEWVATISNRGSYTYYPDSVKGRFTISRDNAKNTLYLQMSSLRSEDTALYYCARERPMDYWGQGTSVTVSS
VL: DIVMTQSHKFMSTSVGDRVSITCKASQDVGTAVAWYQQKPGQSPKLLIYWASTRHTGVPDRFTGSGSGTDFTLTITNVQSEDLAVYFCHQHSSNPLTFGAGTKLELK
B2: VH7/Vκ7 (antibody, V domains shown)
VH: EVQLVESGGGLVKPGGSLRLSCAASGFTFSNYAMSWVRQTPEKRLEWVATISNRGSYTYYPDSVKGRFTISRDNAKNSLYLQMNSLRAEDTALYYCARERPMDYWGQGTLVTVSS
VL: DIQMTQSPSTLSASVGDRVTITCKASQDVGTAVAWYQQKPGKAPKLLIYWASTRHTGVPDRFSGSGSGTDFTLTISSLQAEDFAVYFCHQHSSNPLTFGQGTKLEIK
B3: VH6/Vκ6 (antibody, V domains shown)
VH: EVQLVESGGGLVKPGGSLRLSCAASGFTFSNYAMSWVRQAPGKRLEWVATISNRGSYTYYPDSVKGRFTISRDNAKNSLYLQMNSLRAEDTALYYCARERPMDYWGQGTLVTVSS
VL: DIVMTQSPSFLSASVGDRVTITCKASQDVGTAVAWYQQKPGKAPKLLIYWASTRHTGVPDRFTGSGSGTDFTLTISSLQSEDFAVYFCHQHSSNPLTFGQGTKLEIK
B4: VH4/Vκ7 (antibody, V domains shown)
VH: EVQLVESGGGLVKPGGSLRLSCAASGFTFSNYAMSWVRQAPGKRLEWVATISNRGSYTYYPDSVKGRFTISRDNAKNSLYLQMSSLRSEDTALYYCARERPMDYWGQGTSVTVSS
VL: DIQMTQSPSTLSASVGDRVTITCKASQDVGTAVAWYQQKPGKAPKLLIYWASTRHTGVPDRFSGSGSGTDFTLTISSLQAEDFAVYFCHQHSSNPLTFGQGTKLEIK

The target in this test is cynomolgus monkey factor Bb (cynomolgus monkey). Description: BLI Octet, biotinylated antibody on SA biosensors. In general terms: Biolayer interferometry detects binding as a change in optical thickness at a sensor tip.
As for B1, the Kd (commonly the constant that tells how readily two partners part at equilibrium) stood at 11 nM. Molecule B2 registered a Kd of 16 nM. The molecule B3 yielded a Kd of 11 nM. For B4 the value was 11 nM.

For the origin of these results see US20210332115A1.
